In KR20190140944A one finds Kd data, which are given here for 1 substance.

Assay [1] addresses HER2 및 HER3 (ErbB-2 및 ErbB-3 양성 세포 상에 함께 발현) (human) (UniProt P04626). The assay is described as follows: steady-state cell affinity, 125I-labelled IgG on BT-474 cells at 4 C; mean of 3 assays.
For assay [2] the target is unchanged. The assay is described as follows: steady-state cell affinity, 125I-labelled IgG on SK-BR-3 cells at 4 C; mean of 3 assays.

For the substance PB4188 (bispecific antibody), the Kd (in general, the equilibrium constant for the complex coming apart) stood at 3.2 nM in assay [1] and 2 nM in assay [2].
